Emax data for one molecule are collected here from patent US20230364248A1 (Novo Nordisk, published 2023).

The target of the assay is full length MIC-1 receptor (hGFRAL) and its full signaling co-receptor hRET51, stably expressed in BHK21 cells (human, UniProt Q6UXV0 19-394; P07949 29-1114). Kind of assay: cell-based or functional assay.
Sequence of full length MIC-1 receptor (hGFRAL) and its full signaling co-receptor hRET51, stably expressed in BHK21 cells (Q6UXV0 19-394, chain 1 of 2): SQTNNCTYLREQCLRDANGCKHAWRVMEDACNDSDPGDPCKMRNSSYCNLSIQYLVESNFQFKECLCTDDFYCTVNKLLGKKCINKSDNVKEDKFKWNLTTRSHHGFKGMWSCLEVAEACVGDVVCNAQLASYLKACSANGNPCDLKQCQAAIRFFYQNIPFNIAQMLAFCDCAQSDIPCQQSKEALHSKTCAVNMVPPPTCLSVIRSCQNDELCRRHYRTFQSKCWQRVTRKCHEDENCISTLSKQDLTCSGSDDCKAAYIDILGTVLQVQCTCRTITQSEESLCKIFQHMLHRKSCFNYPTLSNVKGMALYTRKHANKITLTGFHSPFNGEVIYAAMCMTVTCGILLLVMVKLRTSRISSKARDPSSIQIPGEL
Sequence of full length MIC-1 receptor (hGFRAL) and its full signaling co-receptor hRET51, stably expressed in BHK21 cells (P07949 29-1114, chain 2 of 2): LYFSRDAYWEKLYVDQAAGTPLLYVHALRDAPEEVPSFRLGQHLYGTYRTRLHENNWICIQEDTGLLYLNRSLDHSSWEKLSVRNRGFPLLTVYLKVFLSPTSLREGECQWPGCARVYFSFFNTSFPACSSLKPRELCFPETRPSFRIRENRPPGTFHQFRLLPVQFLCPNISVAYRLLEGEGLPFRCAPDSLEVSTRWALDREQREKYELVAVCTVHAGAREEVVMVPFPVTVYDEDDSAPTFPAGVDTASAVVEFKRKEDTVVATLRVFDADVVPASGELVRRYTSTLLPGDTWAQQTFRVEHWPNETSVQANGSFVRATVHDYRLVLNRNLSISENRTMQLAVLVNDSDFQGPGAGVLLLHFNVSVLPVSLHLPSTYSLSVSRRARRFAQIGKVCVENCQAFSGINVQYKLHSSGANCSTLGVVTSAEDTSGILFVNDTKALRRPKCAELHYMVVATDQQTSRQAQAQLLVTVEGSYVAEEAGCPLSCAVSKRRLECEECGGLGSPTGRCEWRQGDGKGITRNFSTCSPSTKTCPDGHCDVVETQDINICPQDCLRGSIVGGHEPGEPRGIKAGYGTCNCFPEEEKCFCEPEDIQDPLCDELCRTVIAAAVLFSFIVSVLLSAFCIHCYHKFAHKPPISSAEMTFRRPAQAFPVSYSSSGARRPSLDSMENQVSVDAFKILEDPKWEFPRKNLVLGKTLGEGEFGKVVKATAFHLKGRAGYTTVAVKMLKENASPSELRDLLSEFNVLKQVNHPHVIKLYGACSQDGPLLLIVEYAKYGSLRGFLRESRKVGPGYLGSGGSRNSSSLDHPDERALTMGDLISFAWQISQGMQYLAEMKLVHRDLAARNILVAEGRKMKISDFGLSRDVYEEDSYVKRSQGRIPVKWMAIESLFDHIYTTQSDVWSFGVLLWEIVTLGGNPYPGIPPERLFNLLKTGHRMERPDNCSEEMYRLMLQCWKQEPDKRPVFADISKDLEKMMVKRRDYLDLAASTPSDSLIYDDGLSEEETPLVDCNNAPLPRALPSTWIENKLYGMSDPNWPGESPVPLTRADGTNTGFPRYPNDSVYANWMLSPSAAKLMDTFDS

B1: MIC-1 (SEQ ID NO: 1) (ligand)
chain: ARNGDHCPLGPGRCCRLHTVRASLEDLGWADWVLSPREVQVTMCIGACPSQFRAANMHAQIKTSLHRLKPDTVPAPCCVPASYNPMVLIQKTDTGVSLQTYDDLLAKDCHCI
As usually defined, the Emax is the size of the effect at its maximum, as opposed to the concentration needed. Molecule B1 registered an Emax of 100%.
